Reference: paper PMC5407892

Legend:
[1] = test system: EhDNAligI full-length (DNA ligase I) (Entamoeba histolytica); assay: fluorescence anisotropy; conditions: 3' dideoxy-C at the nick that halts ligation; Anisotropy: 50 mM Tris/HCl pH 7.5, 25 mM NaCl, 5 mM DTT, 10 mM MgCl2, 250 ug/mL BSA, 1 mM ATP, 30 C; footprinting: 50 mM Tris/HCl pH 7.5, 6.6 mM MgCl2, 5 mM …
[2] = test system: EhDNAligI full-length (DNA ligase I);EhPCNA (Entamoeba histolytica;Entamoeba histolytica); assay: fluorescence anisotropy; conditions: 3' dideoxy-C at the nick that halts ligation; Anisotropy: 50 mM Tris/HCl pH 7.5, 25 mM NaCl, 5 mM DTT, 10 mM MgCl2, 250 ug/mL BSA, 1 mM ATP, 30 C; footprinting: 50 mM Tris/HCl pH 7.5, 6.6 mM MgCl2, 5 mM …
[3] = test system: EhDNAligI full-length (DNA ligase I);HsPCNA (Entamoeba histolytica;Homo sapiens); assay: fluorescence anisotropy; conditions: with HsPCNA, 10 mM Mg2+, 1 mM ATP, 3' dideoxy-C at the nick that halts ligation, Anisotropy: 50 mM Tris/HCl pH 7.5, 25 mM NaCl, 5 mM DTT, 10 mM MgCl2, 250 ug/mL BSA, 30 C, footprinting: 50 mM Tris/HCl pH 7.5, 6.6 mM MgCl2, 5 mM …
[4] = test system: EhDNAligI ΔDBD;EhPCNA (Entamoeba histolytica;Entamoeba histolytica); assay: fluorescence anisotropy; conditions: 3' dideoxy-C at the nick that halts ligation; Anisotropy: 50 mM Tris/HCl pH 7.5, 25 mM NaCl, 5 mM DTT, 10 mM MgCl2, 250 ug/mL BSA, 1 mM ATP, 30 C; footprinting: 50 mM Tris/HCl pH 7.5, 6.6 mM MgCl2, 5 mM …
[5] = test system: EhDNAligI ΔPIP (Entamoeba histolytica); assay: fluorescence anisotropy; conditions: 3' dideoxy-C at the nick that halts ligation; Anisotropy: 50 mM Tris/HCl pH 7.5, 25 mM NaCl, 5 mM DTT, 10 mM MgCl2, 250 ug/mL BSA, 1 mM ATP, 30 C; footprinting: 50 mM Tris/HCl pH 7.5, 6.6 mM MgCl2, 5 mM …
[6] = test system: EhDNAligI ΔPIP;EhPCNA (Entamoeba histolytica;Entamoeba histolytica); assay: fluorescence anisotropy; conditions: 3' dideoxy-C at the nick that halts ligation; Anisotropy: 50 mM Tris/HCl pH 7.5, 25 mM NaCl, 5 mM DTT, 10 mM MgCl2, 250 ug/mL BSA, 1 mM ATP, 30 C; footprinting: 50 mM Tris/HCl pH 7.5, 6.6 mM MgCl2, 5 mM …
[7] = target: EhDNAligI-Phe11Ala:Phe12Ala (Entamoeba histolytica)
[8] = target: Entamoeba histolytica DNA ligase I, full-length (Entamoeba histolytica)
[9] = target: EhDNAligI deletion mutant lacking its first 39 amino acids including the PIP box (Entamoeba histolytica)
[10] = target: Entamoeba histolytica DNA ligase I, full-length (Entamoeba histolytica); remark: listed apart in the source

In the case of “3'-FAM nicked dsDNA (anisotropy substrate)”, the Kd [1] is reported as 72.1 nM, the Kd [2] is reported as 6.2 nM and the Kd [3] is reported as 11.3 nM. The Kd [4] was 95.5 nM, the Kd [5] was 82.1 nM and the Kd [6] was 10.2 nM.
For EhPCNA-V127A-I129A (natural protein), the stimulation of nick-sealing activity (time course) by the EhPCNA mutant [7] was < 2.4 fold.
With EhPCNA-Δ254 (natural protein) the stimulation of nick-sealing activity (time course) by the EhPCNA mutant [7] was < 2.4 fold.
With “Entamoeba histolytica proliferating cell nuclear antigen (natural protein)” the affinity of the ligase for 3′-FAM-labeled nicked DNA by fluorescence anisotropy, with against without EhPCNA [8] was 11 fold, the catalytic efficiency (k cat/K m) of steady-state ligation, with against without EhPCNA [9] was > 18 fold and the catalytic efficiency (k cat/K m) of steady-state ligation, with against without EhPCNA [10] was > 18 fold. It also gave a stimulation of nick-sealing activity (time course) by wild-type EhPCNA [7] of 9.8 fold.
